According to patent US6870033:
Where a chain is given by its changes, count along the chain named. Where two headings read alike, the source gives them in different places.

What was measured:
[1] = target: T1, recombinant human IL-8, (ser-IL-8)72 (human, UniProt P10145 28-99); assay: inhibition of 125I-IL-8 binding to human neutrophils
T1 construct: mature; radio-iodinated when used as tracer; also called human wild type IL-8; wt IL-8
T1 sequence (looked up): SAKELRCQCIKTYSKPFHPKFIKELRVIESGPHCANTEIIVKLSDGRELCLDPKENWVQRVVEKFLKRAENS

[2] = target: T1, recombinant human IL-8, (ser-IL-8)72; assay: as above; remark: listed apart in the source
rhesus IL-8 = target: T2, rhesus IL-8 (rhesus, UniProt P67813 23-101, limits assumed); assay: cell-based or functional assay
T2 sequence (looked up): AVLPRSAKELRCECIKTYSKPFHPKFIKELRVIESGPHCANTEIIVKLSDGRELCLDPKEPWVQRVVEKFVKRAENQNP

[3] = target: T1, recombinant human IL-8, (ser-IL-8)72; assay: cell-based or functional assay

B1: humanized 6G425 F(ab)-1 (Fab, V domains shown)
VH: EVQLVESGGGLVQPGGSLRLSCAASGYSFSSHYMHWVRQAPGKGLEWVGYIDPSNGETTYNQKFKGRFTISRDNSKNTLYLQMNSLRAEDTAVYYCARGDYRYNGDWFFDVWGQGTLVTVSS
VL: DIQMTQSPSSLSASVGDRVTITCRSSQSLVHGIGNTYLHWYQQKPGKAPKLLIYKVSNRFSGVPSRFSGSGSGTDFTLTISSLQPEDFATYYCSQSTHVPLTFGQGTKVEIKR
notes: Fab with human kappa subgroup I light chain and human IgG1 subgroup III heavy chain (vector pEMX1); also called version 1; VI
In the case of B1, the IC50 [1] is reported as 40 nM, the “fold reduction in binding affinity (against the chimeric F(ab) of Table 4)” value [1] is reported as 5.5 fold and the IC50 [2] is reported as 63 nM.

B2: humanized 6G425 F(ab)-8 (6G4.2.5V19) (Fab, V domains shown)
VH: B1 VH with R38K, I70L, L79A
VL: B1 VL
In the case of B2, the “IC50, neutrophil chemotaxis” value (rhesus IL-8) is reported as 10 nM and the “IC50, neutrophil chemotaxis” value [3] is reported as 0.12 nM.

B3: humanized 6G425 F(ab)-2 (Fab, V domains shown)
VH: B1 VH with F68A
VL: B1 VL
notes: Template F(ab)-1; Fab constant parts as F(ab)-1; also called version 2
In the case of B3, the “fold decrease in IL-8 binding (against F(ab)-1)” value [1] is reported as < 2 fold and the IC50 [2] is reported as 106 nM.

B4: humanized 6G425 F(ab)-7 (Fab, V domains shown)
VH: B1 VH with I70L, L79A, L81V
VL: B1 VL
notes: Template F(ab)-6; Fab constant parts as F(ab)-1; also called version 16
B4 gave an IC50 [2] of 38.4 nM.

B5: humanized 6G425 F(ab)-3 (Fab, V domains shown)
VH: B1 VH with R72V
VL: B1 VL
notes: Template F(ab)-1; Fab constant parts as F(ab)-1; also called version 3
With B5 the “fold decrease in IL-8 binding (against F(ab)-1)” value [1] was < 2 fold and the IC50 [2] was 79.8 nM.
